{"source": "patent US7939307B2", "about": "“Deletion mutant of multi-copper oxidase and its use in dyeing” (National University Corporation Kanazawa University, priority 2005, dated 2011)", "key": {"[1]": {"assay": "Oxidative polymerization activity for representative substrates of laccase (Test Example 1)", "type": "biochemical", "conditions": "pH 5.5", "description": "2,6-dimethoxyphenol, p-phenylenediamine, 2,2′-azino-bis(3-ethylbenzothiazoline-6-sulfonate) (ABTS), 2-methoxyphenol, and catechol were dissolved in an ion-exchange distilled water, respectively, to each give a 50 mM aqueous solution.\n4-hydroxyindole and p-aminophenol were dissolved in dimethylsulfoxide (DMSO), respectively, to each give a 50 mM DMSO solution.\no-aminophenol was dissolved in DMSO, and then dissolved in an ion-exchange distilled water, to give a 50 mM DMSO (10%)-aqueous solution.\n1-nitroso-2-naphthol-3,6-disulfonic acid disodium (NNS) was dissolved in an ion-exchange distilled water to give a 5 mM aqueous solution.\nBilirubin was dissolved in DMSO to give a 0.5 mM DMSO solution.\nSyringaldazine was dissolved in ethanol to give a 5 mM ethanol solution.\nL-tyrosine was dissolved in a 0.1 M phosphate buffer solution (pH 6.5), to give a 1 mM solution.\n(§1) For the following method, an acetate buffer solution (pH 5.5) was used as the buffer solution.\nFor the substrates other than NNS and bilirubin, 0.88 mL of a 0.1 M buffer solution and 0.1 mL of the substrate solution were mixed in a cuvette (1.5 mL UV disposable cell, […], and mixed by inversion. The change in absorbance at each wavelength (measurement wavelength shown in Table 1) from 0 to 30 seconds was measured using a spectrophotometer (UV-2459, manufactured by SHIMADZU).\n(§2) For NNS and bilirubin, 0.96 mL of a 0.1 M buffer solution and 0.02 mL of the substrate solution were mixed in a cuvette (1.5 mL UV disposable cell, manufactured by TOP), 0.02 mL of an aqueous solution of mCueO (1) was added thereto, and mixed by inversion. The change in absorbance at each wavelength (measurement wavelength shown in Table 1) from 0 to 30 seconds was measured using a spectrophotometer (UV-2459, manufactured by SHIMADZU).\nFor comparison, the oxidative polymerization activity of an enzyme prepared by adding a histidine tag to the C-terminus of wild-type mature CueO (SEQ ID NO: 8, hereinafter, simply referred to as ‘wild-type CueO’) was measured in the same manner. […] The change in absorbance in 30 seconds which is measured in the above manner was given in terms of change in absorbance in 1 minute (same applies below)."}, "[2]": {"assay": "Oxidative polymerization activity for various substrates (Test Example 2)", "type": "biochemical", "conditions": "pH 5.5", "description": "For substrates other than catechin, lignin (derived from rice), and lignin (derived from conifer), each substrate was dissolved in DMSO, and then dissolved in an ion-exchange water, to give a 1 mM DMSO (1.0%) aqueous solution.\nFor catechin, lignin (derived from rice), and lignin (derived from conifer), each substrate was dissolved in DMSO, and then dissolved in an ion-exchange distilled water, to give a 2 mg/mL DMSO (1.0%) aqueous solution.\nas §1\nas §2, with “0.88 mL” for “For NNS and bilirubin, 0.96 mL”, “and 0.1” for “and 0.02”, “cuvette (1.0” for “cuvette (1.5”, “mL quartz” for “mL UV disposable”, “by SHIMADZU),” for “by TOP),”, “Table 2)” for “Table 1)”\nFor comparison, the oxidative polymerization activity of wild-type CueO was measured in the same manner."}, "[3]": {"conditions": "substrate o-Aminophenol, 420 nm"}, "[4]": {"conditions": "substrate p-Phenylenediamine, 470 nm"}}, "data": [{"molecule": "Wild-type CueO: enzyme prepared by adding a histidine tag to the C-terminus of wild-type mature CueO derived from Escherichia coli (protein, listed as Escherichia coli) MQRRDFLKYSVALGVASALPLWSRAVFAAERPTLPIPDLLTTDARNRIQLTIGAGQSTFGGKTATTWGYNGNLLGPAVKLQRGKAVTVDIYNQLTEETTLHWHGLEVPGEVDGGPQGIIPPGGKRSVTLNVDQPAATCWFHPHQHGKTGRQVAMGLAGLVVIEDDEILKLMLPKQWGIDDVPVIVQDKKFSADGQIDYQLDVMTAAVGWFGDTLLTNGAIYPQHAAPRGWLRLRLLNGCNARSLNFATSDNRPLYVIASDGGLLPEPVKVSELPVLMGERFEVLVEVNDNKPFDLVTLPVSQMGMAIAPFDKPHPVMRIQPIAISASGALPDTLSSLPALPSLEGLTVRKLQLSMDPMLDMMGMQMLMEKYGDQAMAGMDHSQMMGHMGHGNMNHMNHGGKFDFHHANKINGQAFDMNKPMFAAAKGQYERWVISGVGDMMLHPFHIHGTQFRILSENGKPPAAHRAGWKDTVKVEGNVSEVLVKFNHDAPKEHAYMAHCHLLEHEDTGMMLGFTV", "values": [{"measurement": "Activity (U)", "setting": "[1]; substrate 2-Methoxyphenol, 470 nm", "result": 0.00, "unit": "U"}, {"measurement": "Activity (U)", "setting": "[1]; substrate ABTS, 420 nm", "result": 40.22, "unit": "U"}, {"measurement": "Activity (U)", "setting": "[1]; substrate Bilirubin, 530 nm", "result": 0.53, "unit": "U"}, {"measurement": "Activity (U)", "setting": "[1]; substrate Catechol, 400 nm", "result": 0.00, "unit": "U"}, {"measurement": "Activity (U)", "setting": "[1]; substrate L-Tyrosine, 490 nm", "result": 0.00, "unit": "U"}, {"measurement": "Activity (U)", "setting": "[1]; substrate NNS, 490 nm", "result": 0.00, "unit": "U"}, {"measurement": "Activity (U)", "setting": "[1]; substrate Syringaldazine, 530 nm", "result": 4.73, "unit": "U"}, {"measurement": "Activity (U)", "setting": "[1]; [3]", "result": 14.06, "unit": "U"}, {"measurement": "Activity (U)", "setting": "[1]; substrate p-Aminophenol, 400 nm", "result": 3.37, "unit": "U"}, {"measurement": "Activity (U)", "setting": "[1]; [4]", "result": 9.70, "unit": "U"}, {"measurement": "Activity (U)", "setting": "[2]; substrate 1,3-Dihydroxynaphthalene, 450 nm", "result": 2.53, "unit": "U"}, {"measurement": "Activity (U)", "setting": "[2]; substrate 1,5-Dihydroxynaphthalene, 470 nm", "result": 0.78, "unit": "U"}, {"measurement": "Activity (U)", "setting": "[2]; substrate 1-Naphthol, 405 nm", "result": 0.00, "unit": "U"}, {"measurement": "Activity (U)", "setting": "[2]; substrate 2,4-Diaminophenol dihydrochloride, 470 nm", "result": 69.83, "unit": "U"}, {"measurement": "Activity (U)", "setting": "[2]; substrate 2,5-Diaminotoluene sulfate, 470 nm", "result": 44.55, "unit": "U"}, {"measurement": "Activity (U)", "setting": "[2]; substrate 2,6-Dihydroxynaphthalene, 405 nm", "result": 0.00, "unit": "U"}, {"measurement": "Activity (U)", "setting": "[2]; substrate 2,6-Dimethoxy-4-metylphenol, 405 nm", "result": 0.00, "unit": "U"}, {"measurement": "Activity (U)", "setting": "[2]; substrate 2,6-Dimethoxyphenol, 470 nm", "result": 1.43, "unit": "U"}, {"measurement": "Activity (U)", "setting": "[2]; substrate 2-Chloro-1,4-phenylenediamine, 450 nm", "result": 3.10, "unit": "U"}, {"measurement": "Activity (U)", "setting": "[2]; substrate 2-Methoxyphenol, 450 nm", "result": 0.00, "unit": "U"}, {"measurement": "Activity (U)", "setting": "[2]; substrate 4-Hydroxyindole, 405 nm", "result": 3.33, "unit": "U"}, {"measurement": "Activity (U)", "setting": "[2]; substrate 5-Aminoorthocresol, 405 nm", "result": 0.00, "unit": "U"}, {"measurement": "Activity (U)", "setting": "[2]; substrate 5-Hydroxyindole, 405 nm", "result": 0.00, "unit": "U"}, {"measurement": "Activity (U)", "setting": "[2]; substrate Catechin, 405 nm", "result": 0.00, "unit": "U"}, {"measurement": "Activity (U)", "setting": "[2]; substrate Catechol, 405 nm", "result": 0.00, "unit": "U"}, {"measurement": "Activity (U)", "setting": "[2]; substrate Gallic acid, 405 nm", "result": 1.78, "unit": "U"}, {"measurement": "Activity (U)", "setting": "[2]; substrate Hydroquinone, 405 nm", "result": 0.00, "unit": "U"}, {"measurement": "Activity (U)", "setting": "[2]; substrate Lignin (derived from conifer), 450 nm", "result": 0.00, "unit": "U"}, {"measurement": "Activity (U)", "setting": "[2]; substrate Lignin (derived from rice), 450 nm", "result": 0.00, "unit": "U"}, {"measurement": "Activity (U)", "setting": "[2]; substrate N,N-Dimethyl-p-phenylenediamine, 470 nm", "result": 59.35, "unit": "U"}, {"measurement": "Activity (U)", "setting": "[2]; substrate Propyl gallate, 405 nm", "result": 0.00, "unit": "U"}, {"measurement": "Activity (U)", "setting": "[2]; substrate Protocatechuic acid, 405 nm", "result": 0.00, "unit": "U"}, {"measurement": "Activity (U)", "setting": "[2]; substrate Pyrogallol, 405 nm", "result": 9.44, "unit": "U"}, {"measurement": "Activity (U)", "setting": "[2]; substrate Resorcinol, 405 nm", "result": 0.00, "unit": "U"}, {"measurement": "Activity (U)", "setting": "[2]; substrate Tolylene-3,4-diamine, 470 nm", "result": 0.00, "unit": "U"}, {"measurement": "Activity (U)", "setting": "[2]; substrate Trimethylhydroquinone, 405 nm", "result": 0.00, "unit": "U"}, {"measurement": "Activity (U)", "setting": "[2]; substrate m-Aminophenol, 405 nm", "result": 0.00, "unit": "U"}, {"measurement": "Activity (U)", "setting": "[2]; substrate m-Phenylenediamine, 405 nm", "result": 0.00, "unit": "U"}, {"measurement": "Activity (U)", "setting": "[2]; [3]", "result": 14.06, "unit": "U"}, {"measurement": "Activity (U)", "setting": "[2]; substrate o-Phenylenediamine, 430 nm", "result": 0.00, "unit": "U"}, {"measurement": "Activity (U)", "setting": "[2]; substrate p-Aminodiphenylamine, 470 nm", "result": 48.86, "unit": "U"}, {"measurement": "Activity (U)", "setting": "[2]; substrate p-Aminophenol, 405 nm", "result": 3.37, "unit": "U"}, {"measurement": "Activity (U)", "setting": "[2]; substrate p-Methylaminophenol sulfate, 470 nm", "result": 6.51, "unit": "U"}, {"measurement": "Activity (U)", "setting": "[2]; [4]", "result": 19.55, "unit": "U"}]}]}
